System: Zn(II)-bound Fur homodimer (Escherichia coli (expressed in MC4100))
Assay: HinfI restriction site protection
Settings: 0.5 uM (as monomer) sufficient to protect, not a Kd, 2 mM Mg2+, 3.2 nM pUC19-iuc, 20 mM Tris pH 8.0, 150 mM NaCl, 2 mM MgCl2, 0.1 mg/ml BSA, 10 min at room temperature, then HinfI (1 unit) 37 C 10 min

Substance: pUC19-iuc (Fur-box of iucABCD promoter)
- binding: 0.5 µM

From article PMC12538065
